According to US20120316071A1 (published 2012):
Changes are numbered by the printed parent chain. Numbers in names are those of the source.

B1: Fab VH5-51_IGHD5-18*01>3_IGHJ4*01 G100K/G104T (H:KT) & V3-4_IGLJ1*01 M94R/S96M (L:RM) (Fab, V domains shown)
VH: EVQLVQSGAEVKKPGESLKISCKGSGYSFTSYWIGWVRQMPGKGLEWMGIIYPGDSDTRYSPSFQGQVTISADKSISTAYLQWSSLKASDTAMYYCARRKYSYTYDYFDYWGQGTLVTVSS
VL: QTVVTQEPSFSVSPGGTVTLTCGLSSGSVSTSYYPSWYQQTPGQAPRTLIYSTNTRSSGVPDRFSGSILGNKAALTITGAQADDESDYYCVLYRGMGISYVFGTGTKVTVL
notes: Fab expressed in E. coli; Plasmid A adds CH1 with His6 and Flag tags to the heavy chain; Plasmid E adds lambda CL to the light chain; also called H:KT & L:RM; G100K/G104T & M94R/S96M
B2: Fab VH5-51_IGHD5-18*01>3_IGHJ4*01 G100K/G104T G24T/S28R/G35V (H:KT TRV) & V3-4_IGLJ1*01 M94R/S96M (L:RM) (Fab, V domains shown)
VH: B1 VH with G24T, S28R, G35V
VL: B1 VL
notes: Fab expressed in E. coli; Plasmid A adds CH1 with His6 and Flag tags to the heavy chain; Plasmid E adds lambda CL to the light chain; also called H:KT TRV & L:RM; G100K/G104T G24T/S28R/G35V & M94R/S96M
B3: Fab VH5-51_IGHD5-18*01>3_IGHJ4*01 G100K/G104T G24T/S28R/G35V (H:KT TRV) & V3-4_IGLJ1*01 (Fab, V domains shown)
VH: B1 VH with G24T, S28R, G35V
VL: B1 VL with R94M, M96S
notes: Fab expressed in E. coli; Plasmid A adds CH1 with His6 and Flag tags to the heavy chain; Plasmid E adds lambda CL to the light chain; also called H:KT TRV & L:wt; G100K/G104T G24T/S28R/G35V & parent
B4: Fab VH5-51_IGHD5-18*01>3_IGHJ4*01 G100K/G104T G24L/S28R/G35V (H:KT LRV) & V3-4_IGLJ1*01 (Fab, V domains shown)
VH: B1 VH with G24L, S28R, G35V
VL: B1 VL with R94M, M96S
notes: Fab expressed in E. coli; Plasmid A adds CH1 with His6 and Flag tags to the heavy chain; Plasmid E adds lambda CL to the light chain; also called H:KT LRV & L:wt; G100K/G104T G24L/S28R/G35V & parent
B5: Fab VH5-51_IGHD5-18*01>3_IGHJ4*01 G100K/G104T G24A/S28R/G35V (H:KT ARV) & V3-4_IGLJ1*01 (Fab, V domains shown)
VH: B1 VH with G24A, S28R, G35V
VL: B1 VL with R94M, M96S
notes: Fab expressed in E. coli; Plasmid A adds CH1 with His6 and Flag tags to the heavy chain; Plasmid E adds lambda CL to the light chain; also called H:KT ARV & L:wt; G100K/G104T G24A/S28R/G35V & parent
B6: Fab VH1-46_IGHD6-6*01_IGHJ1*01 S102A/S103P/S104F/H111F S84G & L6_IGKJ1*01 (Fab, V domains shown)
VH: QVQLVQSGAEVKKPGASVKVSCKASGYTFTSYYMHWVRQAPGQGLEWMGIINPSGGSTSYAQKFQGRVTMTRDTSTSTVYMELGSLRSEDTAVYYCAREEYAPFSAEYFQFWGQGTLVTVSS
VL: not shown
notes: Tested as Fab expressed in E. coli; also called APFF S84G
B7: Fab VH1-46_IGHD6-6*01_IGHJ1*01 S102A/S103P/S104F/H111F S84R & L6_IGKJ1*01 (Fab, V domains shown)
VH: B6 VH with G84R
VL: not shown
notes: Tested as Fab expressed in E. coli; also called APFF S84R
B8: Fab VH1-46_IGHD6-6*01_IGHJ1*01 S102A/S103P/S104F/H111F S84N & L6_IGKJ1*01 (Fab, V domains shown)
VH: B6 VH with G84N
VL: not shown
notes: Tested as Fab expressed in E. coli; also called APFF S84N
B9: Fab VH1-46_IGHD6-6*01_IGHJ1*01 S102A/S103P/S104F/H111F S84Q & L6_IGKJ1*01 (Fab, V domains shown)
VH: B6 VH with G84Q
VL: not shown
notes: Tested as Fab expressed in E. coli; also called APFF S84Q
B10: Fab VH1-46_IGHD6-6*01_IGHJ1*01 S102A/S103P/S104F/H111F S84T & L6_IGKJ1*01 (Fab, V domains shown)
VH: B6 VH with G84T
VL: not shown
notes: Tested as Fab expressed in E. coli; also called APFF S84T
B11: Fab VH1-46_IGHD6-6*01_IGHJ1*01 S102A/S103P/S104F/H111F S84K & L6_IGKJ1*01 (Fab, V domains shown)
VH: B6 VH with G84K
VL: not shown
notes: Tested as Fab expressed in E. coli; also called APFF S84K
B12: Fab VH1-46_IGHD6-6*01_IGHJ1*01 S102A/S103P/S104F/H111F S84H & L6_IGKJ1*01 (Fab, V domains shown)
VH: B6 VH with G84H
VL: not shown
notes: Tested as Fab expressed in E. coli; also called APFF S84H

target: T1, Recombinant Human DLL4 (R&D Systems Cat#1506-D4/CF) (human, UniProt Q9NR61 27-524); assay: ELISA, DLL4 coated on plate, Fab at 20 nM
T1 construct: Bought recombinant protein; also called delta-like protein 4; Delta-like 4

ELISA signal | Binder
0.087 | B1
0.122 | B2
0.054 | B3
0.027 | B4
0.054 | B5

target: T1, Recombinant Human DLL4 (R&D Systems …); assay: ELISA, DLL4 coated on plate, Fab at 0.74 nM

ELISA signal | Binder
0 | B1
0.006 | B2
0.002 | B3
0.006 | B4
0.008 | B5

target: T1, Recombinant Human DLL4 (R&D Systems …); assay: ELISA, DLL4 coated on plate, Fab at 2.22 nM

ELISA signal | Binder
0.007 | B1
0.028 | B2
0 | B3
0 | B4
0.002 | B5

target: T1, Recombinant Human DLL4 (R&D Systems …); assay: ELISA, DLL4 coated on plate, Fab at 6.67 nM

ELISA signal | Binder
0.023 | B1
0.062 | B2
0.023 | B3
0.005 | B4
0.025 | B5

target: T2, Recombinant Human DLL4 (delta-like protein 4) (human, UniProt Q9NR61 27-524); assay: ELISA on plate-coated DLL4, absorbance at 450 nm, signal minus noise
T2 construct: Bought recombinant protein (R&D Systems Cat#1506-D4/CF); also called rHuman DLL4; Delta-like 4

ELISA (Signal-Noise) | Binder
0.53 | B6
0.26 | B7
0.47 | B8
0.39 | B9
0.4 | B10
0.29 | B11
0.41 | B12

target: T2, Recombinant Human DLL4 (delta-like …); assay: ECL (MSD) multispot binding assay, immobilized DLL4, 10 nM Fab, signal over blank

Signal/Blank [10 nM Fab] | Binder
346 | B6
433 | B7
497 | B8
413 | B9
1080 | B10
448 | B11
457 | B12
